In general, EC50 refers to the concentration giving half of the maximal effect. Low values mean an effect from little substance, high ones a need for much substance. As usually defined, the EC50 (read off the curve) is the concentration that produces a half-maximal response. Read a high EC50 (read off the curve) as lower potency in that assay.

The values that follow come from patent US20250002610A1 (Genmab, published 2025).

In experiment [1] the target is T1, human DR4 (Death Receptor 4), cell surface expressed on human tumor cell lines (human, UniProt O00220 24-468).
T1 construct: also called TNFRSF10A; TRAIL-R1
T1 sequence: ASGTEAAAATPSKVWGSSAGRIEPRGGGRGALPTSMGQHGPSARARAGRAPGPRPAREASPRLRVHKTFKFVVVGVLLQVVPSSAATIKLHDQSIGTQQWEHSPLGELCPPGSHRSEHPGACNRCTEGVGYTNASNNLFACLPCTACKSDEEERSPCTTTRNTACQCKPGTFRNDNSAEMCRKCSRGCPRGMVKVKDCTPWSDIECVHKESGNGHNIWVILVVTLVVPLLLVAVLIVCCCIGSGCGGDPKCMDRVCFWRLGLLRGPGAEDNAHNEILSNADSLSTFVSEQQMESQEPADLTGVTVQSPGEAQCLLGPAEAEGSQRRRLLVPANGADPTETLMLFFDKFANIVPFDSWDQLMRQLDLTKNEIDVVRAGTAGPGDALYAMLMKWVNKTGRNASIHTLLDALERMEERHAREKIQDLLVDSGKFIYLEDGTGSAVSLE
Briefly: flow cytometry, MDA-MB-231 cells, N = 2. In general terms: A flow cytometer gives signals particle by particle.

The target in experiment [2] is T1, human DR4 (Death Receptor 4), cell …. Briefly: flow cytometry, HCT-15 cells, n = 2.
The target of experiment [3] is T2, mouse FAPα on Expi293F cells (mouse (Mus musculus), UniProt P97321 1-761).
T2 sequence: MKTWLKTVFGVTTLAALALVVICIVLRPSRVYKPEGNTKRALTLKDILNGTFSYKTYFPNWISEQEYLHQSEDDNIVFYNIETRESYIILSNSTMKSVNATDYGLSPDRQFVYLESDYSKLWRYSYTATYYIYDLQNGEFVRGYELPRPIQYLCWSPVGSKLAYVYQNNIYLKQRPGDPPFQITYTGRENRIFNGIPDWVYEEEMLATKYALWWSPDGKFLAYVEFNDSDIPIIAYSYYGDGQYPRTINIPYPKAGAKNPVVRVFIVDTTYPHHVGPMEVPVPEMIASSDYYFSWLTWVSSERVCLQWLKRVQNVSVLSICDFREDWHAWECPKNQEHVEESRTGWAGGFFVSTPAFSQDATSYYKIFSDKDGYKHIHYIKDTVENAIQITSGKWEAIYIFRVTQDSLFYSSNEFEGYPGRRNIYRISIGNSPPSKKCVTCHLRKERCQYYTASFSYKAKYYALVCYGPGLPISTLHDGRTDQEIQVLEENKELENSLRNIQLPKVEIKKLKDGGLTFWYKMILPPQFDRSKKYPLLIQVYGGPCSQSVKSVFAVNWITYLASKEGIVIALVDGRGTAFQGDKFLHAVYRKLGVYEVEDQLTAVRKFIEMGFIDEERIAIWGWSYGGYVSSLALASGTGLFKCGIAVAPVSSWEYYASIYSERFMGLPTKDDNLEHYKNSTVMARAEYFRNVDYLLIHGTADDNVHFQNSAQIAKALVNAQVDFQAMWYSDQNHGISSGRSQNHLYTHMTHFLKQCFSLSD
Briefly: flow cytometry on Expi293F cells transiently expressing mouse FAPα, gMFI PE. As for the experimental part:
Binding of BisG1-FAPα-FERL/DR4-FERR, BisG1-FAPα-FEAL/b12-FEAR and IgG1-FAPα-FERL to FAPα of species commonly used for nonclinical toxicology studies was assessed by flow cytometry using Expi293F cells transiently expressing FAPα from different animal species. IgG1-b12 was included as negative control.
Expi293F cells expressing recombinant FAPα from various species (human, cynomolgus monkey, dog, pig, rat or mouse) were seeded (20,000 cells/well) in 96-Well round bottom plates (Greiner Bio-one, Cat #650101). Antibody dilutions were prepared using FACS buffer, consisting of PBS (Capricorn Scientific, Cat #PBS-10XA, diluted to 1×PBS in distilled water)+1% BSA (Roche, Cat #10735086001)+0.02% Sodium Azide (Bio-World, Cat #41920044-3). Plates were centrifuged, supernatant was removed, and cells were resuspended in 100 μL of antibody dilutions (concentration range 30-0.00017 μg/mL with three-fold serial dilutions using FACS buffer) of BisG1-FAPα-FERL/DR4-FERR, BisG1-FAPα-FEAL/b12-FEAR, IgG1-FAPα-FERL and IgG1-b12 and incubated for 30 min at 4° C. […] After 30 min incubation at 4° C., cells were washed with FACS buffer and resuspended in FACS buffer supplemented with TO-PRO-3 Iodide viability marker (Invitrogen, Cat #T3605, diluted 1:4,000). Antibody binding to viable cells (gMFI of PE on TO-PRO-3 negative cells) was analyzed by flow cytometry on a FACS Celesta and FACS_Diva software (first two experiments) or iQue® 3 and FlowJo software (last experiment). gMFI was determined and visualized using GraphPad Prism. Binding curves were analyzed using nonlinear regression analysis. The concentration (pg/mL) at which 50% of the maximal effect was observed (EC₅₀) was derived from the fitted curves.

B1: IgG1-DR4-FERR (antibody, V domains shown)
VH: QVQLQESGPGLVKPSGTLSLTCAVSGGSISSYSWWSWIRQPPGKGLEWIGELYHSGSTNYNPSLKSRVTISVDKSKNQFSLKLRSVTAADTAVYYCVRGVATIDYWGQGTLVTVSS
VL: QSALTQPPSASGSPGQSVTISCTGTSSDVGGYNFVSWYQQDPGKAPKLLIYEVTKRPSGVPDRFSGSKSGNTASLTVSGLQAEDEADYYCSSYAGSNNVMFGGGTKLTVLG
notes: Bivalent monoclonal IgG1 lambda
As to B1, the figures for the half-maximal effective concentration (EC50) in experiment [1] and in experiment [2] were 0.26 µg/mL and 0.17 µg/mL, respectively.

B2: BisG1-FAPα-FEAL/b12-FEAR (bispecific antibody, human IgG1, kappa)
heavy 1: EVQLLESGGGLVQPGGSPRLSCEASGFTFSSYALSWVRQAPGKGLEWVSAISGSGGGRYYADSVKGRFTISRDNSKNTLFLQMNSLRAEDTAVYYCAKEGYSSSGTYWDHWGQGTLVTVSSASTKGPSVFPLAPSSKSTSGGTAALGCLVKDYFPEPVTVSWNSGALTSGVHTFPAVLQSSGLYSLSSVVTVPSSSLGTQTYICNVNHKPSNTKVDKRVEPKSCDKTHTCPPCPAPEFEGGPSVFLFPPKPKDTLMISRTPEVTCVVVAVSHEDPEVKFNWYVDGVEVHNAKTKPREEQYNSTYRVVSVLTVLHQDWLNGKEYKCKVSNKALPAPIEKTISKAKGQPREPQVYTLPPSREEMTKNQVSLTCLVKGFYPSDIAVEWESNGQPENNYKTTPPVLDSDGSFLLYSKLTVDKSRWQQGNVFSCSVMHEALHNHYTQKSLSLSPG
light 1: AIQMTQSPSSVSASVGDRVTITCRASQGVSSWLAWYQQKPGRAPKLLIYVASTLQSGVPSRFSGSGSGTDFTLTINSLQPEDFATYYCQQANSFPPTFGQGTRLEMKRTVAAPSVFIFPPSDEQLKSGTASVVCLLNNFYPREAKVQWKVDNALQSGNSQESVTEQDSKDSTYSLSSTLTLSKADYEKHKVYACEVTHQGLSSPVTKSFNRGEC
heavy 2: QVQLVQSGAEVKKPGASVKVSCQASGYRFSNFVIHWVRQAPGQRFEWMGWINPYNGNKEFSAKFQDRVTFTADTSANTAYMELRSLRSADTAVYYCARVGPYSWDDSPQDNYYMDVWGKGTTVIVSSASTKGPSVFPLAPSSKSTSGGTAALGCLVKDYFPEPVTVSWNSGALTSGVHTFPAVLQSSGLYSLSSVVTVPSSSLGTQTYICNVNHKPSNTKVDKRVEPKSCDKTHTCPPCPAPEFEGGPSVFLFPPKPKDTLMISRTPEVTCVVVAVSHEDPEVKFNWYVDGVEVHNAKTKPREEQYNSTYRVVSVLTVLHQDWLNGKEYKCKVSNKALPAPIEKTISKAKGQPREPQVYTLPPSREEMTKNQVSLTCLVKGFYPSDIAVEWESNGQPENNYKTTPPVLDSDGSFFLYSRLTVDKSRWQQGNVFSCSVMHEALHNHYTQKSLSLSPG
light 2: EIVLTQSPGTLSLSPGERATFSCRSSHSIRSRRVAWYQHKPGQAPRLVIHGVSNRASGISDRFSGSGSGTDFTLTITRVEPEDFALYYCQVYGASSYTFGQGTKLERKRTVAAPSVFIFPPSDEQLKSGTASVVCLLNNFYPREAKVQWKVDNALQSGNSQESVTEQDSKDSTYSLSSTLTLSKADYEKHKVYACEVTHQGLSSPVTKSFNRGEC
notes: Fab-arm exchange of IgG1-FAPα-FEAL and IgG1-b12-FEAR
Consider B2, for which the binding result in experiment [3] is on record as “binds”.

B3: IgG1-FAPα-FERL (antibody)
heavy: EVQLLESGGGLVQPGGSPRLSCEASGFTFSSYALSWVRQAPGKGLEWVSAISGSGGGRYYADSVKGRFTISRDNSKNTLFLQMNSLRAEDTAVYYCAKEGYSSSGTYWDHWGQGTLVTVSSASTKGPSVFPLAPSSKSTSGGTAALGCLVKDYFPEPVTVSWNSGALTSGVHTFPAVLQSSGLYSLSSVVTVPSSSLGTQTYICNVNHKPSNTKVDKRVEPKSCDKTHTCPPCPAPEFERGPSVFLFPPKPKDTLMISRTPEVTCVVVDVSHEDPEVKFNWYVDGVEVHNAKTKPREEQYNSTYRVVSVLTVLHQDWLNGKEYKCKVSNKALPAPIEKTISKAKGQPREPQVYTLPPSREEMTKNQVSLTCLVKGFYPSDIAVEWESNGQPENNYKTTPPVLDSDGSFLLYSKLTVDKSRWQQGNVFSCSVMHEALHNHYTQKSLSLSPG
light: AIQMTQSPSSVSASVGDRVTITCRASQGVSSWLAWYQQKPGRAPKLLIYVASTLQSGVPSRFSGSGSGTDFTLTINSLQPEDFATYYCQQANSFPPTFGQGTRLEMKRTVAAPSVFIFPPSDEQLKSGTASVVCLLNNFYPREAKVQWKVDNALQSGNSQESVTEQDSKDSTYSLSSTLTLSKADYEKHKVYACEVTHQGLSSPVTKSFNRGEC
notes: Bivalent monoclonal IgG1 kappa
As to B3, the 50% effective concentration (EC50 (read off the curve)) in experiment [3] was ~0.1 µg/mL.

B4: BisG1-b12-FERL/DR4-FERR (bispecific antibody, human IgG1, kappa, lambda)
heavy 1: QVQLVQSGAEVKKPGASVKVSCQASGYRFSNFVIHWVRQAPGQRFEWMGWINPYNGNKEFSAKFQDRVTFTADTSANTAYMELRSLRSADTAVYYCARVGPYSWDDSPQDNYYMDVWGKGTTVIVSSASTKGPSVFPLAPSSKSTSGGTAALGCLVKDYFPEPVTVSWNSGALTSGVHTFPAVLQSSGLYSLSSVVTVPSSSLGTQTYICNVNHKPSNTKVDKRVEPKSCDKTHTCPPCPAPEFERGPSVFLFPPKPKDTLMISRTPEVTCVVVDVSHEDPEVKFNWYVDGVEVHNAKTKPREEQYNSTYRVVSVLTVLHQDWLNGKEYKCKVSNKALPAPIEKTISKAKGQPREPQVYTLPPSREEMTKNQVSLTCLVKGFYPSDIAVEWESNGQPENNYKTTPPVLDSDGSFLLYSKLTVDKSRWQQGNVFSCSVMHEALHNHYTQKSLSLSPG
light 1: EIVLTQSPGTLSLSPGERATFSCRSSHSIRSRRVAWYQHKPGQAPRLVIHGVSNRASGISDRFSGSGSGTDFTLTITRVEPEDFALYYCQVYGASSYTFGQGTKLERKRTVAAPSVFIFPPSDEQLKSGTASVVCLLNNFYPREAKVQWKVDNALQSGNSQESVTEQDSKDSTYSLSSTLTLSKADYEKHKVYACEVTHQGLSSPVTKSFNRGEC
heavy 2: QVQLQESGPGLVKPSGTLSLTCAVSGGSISSYSWWSWIRQPPGKGLEWIGELYHSGSTNYNPSLKSRVTISVDKSKNQFSLKLRSVTAADTAVYYCVRGVATIDYWGQGTLVTVSSASTKGPSVFPLAPSSKSTSGGTAALGCLVKDYFPEPVTVSWNSGALTSGVHTFPAVLQSSGLYSLSSVVTVPSSSLGTQTYICNVNHKPSNTKVDKRVEPKSCDKTHTCPPCPAPEFERGPSVFLFPPKPKDTLMISRTPEVTCVVVDVSHEDPEVKFNWYVDGVEVHNAKTKPREEQYNSTYRVVSVLTVLHQDWLNGKEYKCKVSNKALPAPIEKTISKAKGQPREPQVYTLPPSREEMTKNQVSLTCLVKGFYPSDIAVEWESNGQPENNYKTTPPVLDSDGSFFLYSRLTVDKSRWQQGNVFSCSVMHEALHNHYTQKSLSLSPG
light 2: QSALTQPPSASGSPGQSVTISCTGTSSDVGGYNFVSWYQQDPGKAPKLLIYEVTKRPSGVPDRFSGSKSGNTASLTVSGLQAEDEADYYCSSYAGSNNVMFGGGTKLTVLGQPKAAPSVTLFPPSSEELQANKATLVCLISDFYPGAVTVAWKADSSPVKAGVETTTPSKQSNNKYAASSYLSLTPEQWKSHRSYSCQVTHEGSTVEKTVAPTECS
notes: Fab-arm exchange of IgG1-b12-FERL and IgG1-DR4-FERR; also called bsIgG1-ctrl-FERLxDR4-FERR
Consider B4, for which the concentration for a half-maximal effect (EC50) turned out to be 0.95 µg/mL in experiment [1] and 0.57 µg/mL in experiment [2]. Also, the “Max MFI (at 90 µg/mL)” value in experiment [1] was 7840 MFI.
